Assay: yeast display, Sf9 membrane polyspecificity reagent, FACS + sequencing; frameworks hold sequencing errors
Procedure, shortened: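 Nanobodies came from a synthetic yeast display library in Saccharomyces cerevisiae BJ5465, induced with galactose for 36–48 hours and stained for 1 hour at 4 °C with 10% biotinylated, detergent-solubilized Sf9 membrane reagent. Cells were enriched on streptavidin microbeads and then FACS-sorted, with low and high (top ~1%) gates set on anti-HA fluorescence for expression and streptavidin fluorescence for reagent binding. Each polyreactivity label reflects the gate a clone came from. Genes were amplified by colony PCR, sequenced by MiSeq 2 × 250 and filtered by CDR length.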

Row | Sequence | polyreactivity (PSR sort gate)
1 | QVQLVESGGGLVQAGGSLRLSCAASGSIFARNAMGWYRQAPGKERELVAVITTGGRTYYADSVKGRFTISRDNAKNTVYLQMNSLKPEDTAVYYCATRVIYGQSGGYWGQGTQVTVSS | high polyreactivity
2 | QVQLVESGGGLVQAGGSLRLSCAASGRTFYAYAMGWYRQAPGKERELVSAISWRGGDTYYADSVKGRFTISRDYAKNTVYLQMHSLIPEDTAFYYCAADFTYTWDAAQGYDYWGQGPQVTVSS | low polyreactivity
3 | QVQLVESGGGLVQAGGSLRVSCAASGLTFDTNAMGWYRQARGKERELVAAITDSGDSTYYADSVKGRFTISRDNAKNTVYLQMNRLKPEDSAVYYCAARRSNLAWGRRRMYYWGQGTQVTVSS | high polyreactivity
4 | QVQLVESGGGLVQAGGSLRLSCAASGLTFYRYTMGWYRQAPGKERELVAAIRSSGGRTYYADSVKGRFTISRDNAKNTVYLQKNSLKPEDTAVYYCNAVRYNSVGYVYWGQGTQVTVSS | high polyreactivity
5 | QVQLVESGGGLVQAGGRLRLTCAASASIFYYYTMGWYRQAPGKERELVAAINSIGGRTYYADSVKGRFTISRDNAKNTVYLQMNSLKQEDNAVYYCNAVLDPGDQDDYDYWGQGTQVTLSS | low polyreactivity
6 | QVQLVESGGGLVQAGRILRLSCAASGYIFRRYAMGWYRQAPGKERELVAVISSRGGSTYYADSVKGRFTISRDNATKTVYLQMNSLKPEDTAVYYCAARSGSRATFLSDYWGQGNQVTVSS | high polyreactivity
7 | QVQLVESGGGLVQAGGSLRLSCAAYGLTFYGNAMGWYRQAPGKERELVAAISRGGRTYYADSVKGRFTISRDNAKKTVYLQRNSLKPEDTAVYYCATVVSRVKQPFDMDYWGQGTQVTVSA | low polyreactivity
8 | QFQLVESWVGLVQAGGSLRLSCAASGSTFPYYAIGWYRQAPGKERELVASIRKRGGGTYYADSVKGRFTISRDNAKNTVYLQMNSLKPEDTAVYYCAVRVYQFRFTGYDYWGHGTQVTVSS | high polyreactivity
9 | QVQLVESGGGLVQAGGSLRLSCAASGRTFYQYAMGWYRQAPGKERELVAAISRRGGSTYYADSVKGRFTISRDNAKNTVYLQMNSLKPEDTAVYYCAARVRGKYDYWGQGTQVTVSS | high polyreactivity
10 | QVQLVESGGGLVQAGGSLRLSCPASGSTFKRNAMGWYRQAPGKERELVATITRRGGSTYADSVNGRFTISRDNAKNTVYLQMNSLKAEDTAVYYCARDGFSAGMDYWGQGTQVTVSS | low polyreactivity
11 | QDQLVESGGGLVQAGGSLRLSCAASGRIFYPNAMGWYRQAPGKERELVASISRGGPTSYADSVKGRFTISRDNAKNTVYLQMNSLKPEDTAVYYCAADVAWYRYRSYYWGQGTQVTVSS | high polyreactivity
12 | QVQLVESGGGLVQAGGSLRLSCAASGSTFYTNAMGWYRQAPGKERELVASITDGGDSTHYADSVKGRFTISRDNAKNTVYLQMNSLKPEDTAVYYCAVDYQYFQEYDSWGQGTQVTVSS | low polyreactivity
13 | QVQLVESGGGLVQAGGSLRLSCAASGRTFYPYVMGWYRQAPGKEREMVAAISYTGGSTYYADSVKGRFTISRDNAKNTVYLQMNSLKPEDTAVYYCNRAKYYSGGYRYHVDYWGQGTQVTVSS | high polyreactivity
14 | QVQLVESGGGLDQAGGSLRLTCAASGFIIHRYAMAWYRQGPGTEMELVAAISRSGVSTNYADSVKGRFTISRDNPKNTVYLHMYSLKTEDTSVYYCASPYYSYQSYKYWGKGTQVTVSS | high polyreactivity
15 | QVQLVESGVGIVQAGGSLRLSCAASGSTYGYNAMGWYRQAPGKESEFVARIRSSGSTTYADSVKRRFTISRDNAMNTVYLLMNSLNPEDNAVYYWAARRYFYLVVYYSWGQCTQVTVSS | high polyreactivity
16 | QVQLVESGGGLVQAGGSLRLSCAASGFTFDSYDMGWYRQAPGKERELVAAISKSGGTTYYADSLKGRFTISRDNANNTVYLQMNSLKPEDTAVFYCAAGGPRGGYGRYYYWGPGTQVTVSS | high polyreactivity

Row | Sequence | polyreactivity (PSR sort gate)
17 | QFQLVESGGGLVQAGGSLRLSCAASGIIFRYYGMGWYRQAPGKERELVARILWTGGSTYYADSVKGRFTISRDNAKNTVYFQMNSLKPEDTAVYYSAADIWQYSRIANYHPYEYWGQGTQVTVSS | low polyreactivity
18 | QVQLVESGGGLVQAGGSLRLSCAASGIIFRANAMGWYRQAPGKERELVAAISSSGGSTFYADSVKGRFTISRDNAKNTVYLQMNSLKPEDTAVYFCAAGRSKFAWSEYEYWGQGTQVSVSS | low polyreactivity
19 | QVQLVESGGGLVQAGGSLRLSCAASGRTFRGNAMGWNRQTHGKERELVAAISWSGGRTYYADSVKGRFTISRDNAKNSVYLQMNSLKPEDTAVYDCAAVVPKYGQAGYDYWGQGTQVSVSS | high polyreactivity
20 | QVQLVESGGGLVQAGGSLRLSCAASGFNFYRYAMGWYRQAPGKERELVAVITGRGGTTYYSDSVKGRFTISRDNAKNTVYLQMNSLKTEDTAVYYCAAPQQQSWTYDGRYGYWGQGTKVTVSS | high polyreactivity
21 | QVQLVESGGGLVQAGGRLRLSCAASGRIFVIKSMGWYRQAPAKERELVAAISKRGGSTYYADSVKGRFTISRDNAKNTVYLQMNSLKPEDTAVYYCAARFKTTGYDYWGQGTQVTVSS | high polyreactivity
22 | QVQLVESGGGVVQAGGSLRLSCAASGRNFVYNAMGLYRQAPGKERELVAAIYSGGRTYYADSVKGRFTISRDNAKNTVYFKMYSLKPEDTAVYYCAARWYVLPTQTRPYYGYYYWGQGTQVTVSS | high polyreactivity
23 | QVQLVESGGGLVQAGGSLRLSCAASGRIFQYNTMGWYRQAPGKERELVAGISSGGSTNYADSVKGRFTISRDNAKNTVYLQMNSLKPEDTAVYYCAARAKRYNVRFDYWGQGTQVTVSS | high polyreactivity
24 | QVQLVESGGGLVQAGGSLRLSCAASGGIFPPNVMGWYRPAPGKETELVAANSRSGGSTYYADSVKGRFTISRDNAKNTVYLQMNSLTAEDTAVYYCAAANTQRGFRYDYWGQGTQVTVSS | high polyreactivity
25 | QVQLVESCGGLVQAGGSLRLSCADYGRTFGKYAMGWYRQSPGKERELVAAITYRGGTTYYEDSVKGRFTISRDNAKNTLYLQMNSLKPEDTAVYYCATAPGRRYDWGQGTQVTVSS | high polyreactivity
26 | QVQLVESGGGLVQAGGSLRLSCAASGSTFKRNAMGWSRQAPGKEWELVAAITFSGATTYYADSVKGRFTISRDNAKNTVYLQMNSLKPEDTAVYYCATKAYTTGRYYWGQGTQVTVSS | high polyreactivity
27 | QVQLVESGGGLVQAGGSLRLSCAASGSTFQYYAMGWYRQAPGKERELVDAISPSVDTTFYADSVKGRFTISRDNAKNTVYLQMNSLKPEDTAVYFCAKRYVDPLGSGTLGSWGQGTQVTVSS | low polyreactivity
28 | QVQLVESGGGLVQAGGSLRLSCAASGNTFGRYAMGGYRQAPGKERELVAAISWSGGSTYSADSVKGRFTISRDNAKNSLYLQMNSLKPEDTAVYYCAANSWRGFEYWGQGTQVTVSS | high polyreactivity
29 | QVQLVESGGGLLQAGGSLRLSCAASGRTFSVNAMGWYRQAPGKERELVATITWSGSSTSYADSVKGRFTISRDNAKNTVDLQMNSLKPEDTAVYYCAADLWTLIYLTDTYGHWGQATQVTVSS | low polyreactivity
30 | QVQLVESGGGLVQAGGSLRLSCAASGIIFTRYAMGWYRQAPGKERELVAAITTSGGRTYYADSVKGRFTISRDNAKNTVYLQMNSLKPEDTAVYYCAVSGHARYDYWGQGTQVTVSS | high polyreactivity
31 | QVQLVESGGGLVQAGGSLRLSCAASGIIFRYYTMGWYRQAPGKERELVAAITQSSGRTYYADSVKGRFTISRDNAKNTVYLQMNCLIPEDTAVFYCNVRPLRSYRAVDYWGQGTQVTVSS | high polyreactivity
32 | QVQLVESGGGLVQAGGILRLSCAASGRTFYSNAMGWYRQAPGKARELVAAISRSGGRTYYADSVKGRFTISRDNAKISVYLQMNSLKTEDTAVYYCNKVRQNSSMDYWGQGTQVTVSS | high polyreactivity

Reference: the nanobody polyreactivity screen of Harvey et al. (2022)
